Columns and labels:
[1] = biological target: FabZ (β-hydroxyacyl-ACP dehydratase) from Helicobacter pylori (Helicobacter pylori) (UniProt O25928); assay: SEC-MALS
[2] = biological target: FabZ (β-hydroxyacyl-ACP dehydratase) from Helicobacter pylori (Helicobacter pylori) (UniProt O25928); assay: MST
SEC-MALS = biological target: the molecule itself; assay: SEC-MALS

Molecule: holo-acyl carrier protein (holo-ACP) from Helicobacter pylori (natural protein)
- stoichiometry N (holo-ACP per FabZ hexamer) [1]: 3
- KD, first phase of the triphasic binding curve [2]: 0.354 µM
- KD, second phase of the triphasic binding curve [2]: 16.2 µM
- KD, third phase of the triphasic binding curve [2]: 297 µM

B1: FabZ (β-hydroxyacyl-ACP dehydratase) from Helicobacter pylori (enzyme)
chain: MEQSHQNLQSQFFIEHILQILPHRYPMLLVDRIIELQANKKIVAYKNITFNEDVFNGHFPNKPIFPGVLIVEGMAQTGGFLAFTSLWGFDPEIAKTKIVYFMTIDKVKFRIPVTPGDRLEYHLEVLKHKGMIWQVGGTAQVDGKVVAEAELKAMIAER
modifications: fluorescence dye NT-647 (amine-reaction) in the MST assay only
- stoichiometry N (SEC-MALS): 6
